Positions count from the first letter of the chain named. Values belong to the binder of their own block, whether it stands above or below them.
Columns and labels:
[1] = biological target: T1, rhCD73 bound to his-tag magnet beads (human, UniProt P21589 27-547, limits assumed); test: cell-based or functional assay
T1 sequence: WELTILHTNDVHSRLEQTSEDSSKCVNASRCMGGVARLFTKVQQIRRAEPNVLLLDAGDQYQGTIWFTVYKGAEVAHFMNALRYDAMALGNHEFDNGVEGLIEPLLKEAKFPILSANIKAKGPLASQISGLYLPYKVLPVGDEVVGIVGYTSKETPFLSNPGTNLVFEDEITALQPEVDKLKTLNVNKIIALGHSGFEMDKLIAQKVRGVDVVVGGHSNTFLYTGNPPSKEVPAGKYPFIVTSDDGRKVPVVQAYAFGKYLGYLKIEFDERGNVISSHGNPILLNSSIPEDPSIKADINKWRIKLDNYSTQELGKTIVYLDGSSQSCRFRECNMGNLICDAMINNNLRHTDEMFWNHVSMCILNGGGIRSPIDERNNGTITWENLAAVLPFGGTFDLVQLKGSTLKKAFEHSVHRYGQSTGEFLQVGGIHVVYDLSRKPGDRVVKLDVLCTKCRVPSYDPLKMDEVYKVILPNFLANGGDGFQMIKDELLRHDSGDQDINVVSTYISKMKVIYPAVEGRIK

human CD73 on cells [2] = biological target: T2, human CD73 on cells (human, UniProt P21589 27-549); test: cell-based or functional assay
T2 sequence: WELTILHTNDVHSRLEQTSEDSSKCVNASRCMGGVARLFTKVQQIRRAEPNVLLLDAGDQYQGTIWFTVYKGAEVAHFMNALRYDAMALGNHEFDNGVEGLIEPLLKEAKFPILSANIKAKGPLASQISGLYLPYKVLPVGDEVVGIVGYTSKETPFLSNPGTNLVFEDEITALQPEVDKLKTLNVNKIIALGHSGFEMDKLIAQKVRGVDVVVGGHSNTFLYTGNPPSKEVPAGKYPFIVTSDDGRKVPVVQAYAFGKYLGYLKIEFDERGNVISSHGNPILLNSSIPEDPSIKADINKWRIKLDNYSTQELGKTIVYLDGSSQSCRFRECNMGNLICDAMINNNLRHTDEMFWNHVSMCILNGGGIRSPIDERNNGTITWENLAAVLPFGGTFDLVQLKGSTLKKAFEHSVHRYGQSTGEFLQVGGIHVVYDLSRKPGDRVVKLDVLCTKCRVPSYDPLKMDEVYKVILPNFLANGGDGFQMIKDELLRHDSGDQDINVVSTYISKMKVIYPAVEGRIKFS

human CD73 on cells [3] = biological target: T2, human CD73 on cells; test: cell-based or functional assay; remark: listed apart in the source
[4] = biological target: T3, N-hCD73-his (N-terminal domain of human CD73, residues 26-336, His tag) (human, UniProt P21589 26-336); test: SPR, mAb captured on protein A
T3 sequence: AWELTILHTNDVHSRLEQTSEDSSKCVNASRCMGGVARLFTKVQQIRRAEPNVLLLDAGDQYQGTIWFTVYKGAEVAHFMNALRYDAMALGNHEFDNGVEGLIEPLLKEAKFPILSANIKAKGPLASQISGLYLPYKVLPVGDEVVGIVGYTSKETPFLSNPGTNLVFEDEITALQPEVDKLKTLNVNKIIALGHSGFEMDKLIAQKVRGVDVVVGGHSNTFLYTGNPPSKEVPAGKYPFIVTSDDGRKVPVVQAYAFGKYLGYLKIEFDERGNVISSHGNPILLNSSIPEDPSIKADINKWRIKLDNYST
Description: For these experiments, protein A (Pierce) was immobilized to a density of 3000-4000 RU on flow cells 1-4 of a CM5 sensor chip (GE Healthcare) using standard ethyl(dimethylaminopropyl) carbodiimide (EDC)/N-hydroxysuccinimide […] chemistry, with ethanolamine blocking, in a running buffer of 0.01 M HEPES pH 7.4, 0.15 M NaCl, 3 mM EDTA, 0.005% v/v tween 20. […] The running buffer for the kinetic experiments was 10 mM sodium phosphate, 130 mM sodium chloride, 0.05% tween 20, pH 7.1. The surfaces were regenerated after each cycle using two 30 s pulses of 10 mM glycine pH 1.5 at a flow rate of 30 μl/min. Sensogram data was double-referenced and then fitted to a 1:1 Langmuir model using Biacore T100 evaluation software v2.0.4, to determine the association rate constant (ka), the dissociation rate constant (kd), and the equilibrium dissociation constant (KD).

human CD73 on cells [5] = biological target: T2, human CD73 on cells; test: binding titration on Calu6 cells, average of 2-6 experiments
human CD73 on cells [6] = biological target: T2, human CD73 on cells; test: cell-based or functional assay; remark: listed apart in the source
human CD73 on cells [7] = biological target: T2, human CD73 on cells; test: cell-based or functional assay; remark: listed apart in the source

B2: 10D2 (antibody, human IgG4, kappa, V domains shown)
VH: QVQLVESGGGVVQPGRSLRLSCAASGFTFSNYGLHWVRQAPGKGLEWVAVIRYDGSNKYYADSVKGRFTISRDNSKNTLYLQMSSLRAEDTAVYYCARGGSSWYPDGLDVWGQGTTVTVSS
VL: DIQMTQSPSSLSASVGDRVTITCRASQGISSWLAWYQQKPEKAPKSLIYAASSLQSGVPSRFSGSGSGTDFTLTISSLQPEDFATYYCQQYNSYPLTFGGGTKVEIKR
notes: also called 10D2-2
EC50 (nM), inhibition of bead-bound human CD73 enzymatic activity [1]: 6.94 nM
Ymax, high-content internalization assay (percent of 100 nM 11F11) (human CD73 on cells [6]): 29%
Kd [4]: 1.6 nM
koff [4]: 0.00095 s⁻¹
kon [4]: 610000 M⁻¹ s⁻¹

B3: 7A11 (antibody, human IgG1, kappa, V domains shown)
VH: EVQLVESGGGLVQTGRSLRLSCAASGFTFDDYAMHWVRQAPGKGLEWVSDISWNSDIIGYADSVKGRFTISRDNAKNSLYLQMNSLRAEDTALYYCAKDIYGSGSSFFDYWGQGILVTVSS
VL: B2 VL with G28Y, N92H, L96P, G100Q, K103R, V104L
notes: IgG1za; also called 7A11-1
EC50 (nM), inhibition of bead-bound human CD73 enzymatic activity [1]: 2.86 nM
EC50 Calu6 inhibition (human CD73 on cells [2]): 0.95 nM
EC50 H292 inhibition (human CD73 on cells [2]): 1.31 nM
EC50 SKMEL24 inhibition (human CD73 on cells [2]): 3.72 nM
IC50 (nM), cAMP HTRF assay, Calu-6 with HEK293/A2AR cells (human CD73 on cells [3]): 0.95 nM
Ymax, cAMP HTRF assay (percent of 100 nM 11F11 control) (human CD73 on cells [3]): 45%
EC50 (nM), high-content internalization assay, Calu6, 2 h (human CD73 on cells [6]): 2.59 nM
Ymax, high-content internalization assay (percent of 100 nM 11F11) (human CD73 on cells [6]): 50%
Kd [4]: 0.43 nM
koff [4]: 0.00038 s⁻¹
kon [4]: 880000 M⁻¹ s⁻¹
EC50 (human CD73 on cells [5]): 0.35 nM

B5: CD73.4-IgG2.3-plusTHT (antibody)
heavy: QVQLVESGGGVVQPGRSLRLSCAASGFTFSNYGMHWVRQAPGKGLEWVAVILYDGSNKYYPDSVKGRFTISRDNSKNTLYLQMNSLRAEDTAVYYCARGGSSWYPDSFDIWGQGTMVTVSSASTKGPSVFPLAPCSRSTSESTAALGCLVKDYFPEPVTVSWNSGALTSGVHTFPAVLQSSGLYSLSSVVTVPSSNFGTQTYTCNVDHKPSNTKVDKTVERKSCVETHTCPPCPAPPVAGPSVFLFPPKPKDTLMISRTPEVTCVVVDVSHEDPEVQFNWYVDGVEVHNAKTKPREEQFNSTFRVVSVLTVVHQDWLNGKEYKCKVSNKGLPAPIEKTISKTKGQPREPQVYTLPPSREEMTKNQVSLTCLVKGFYPSDIAVEWESNGQPENNYKTTPPMLDSDGSFFLYSKLTVDKSRWQQGNVFSCSVMHEALHNHYTQKSLSLSPGK
light: not shown
CD73 Inhibition S:B (inhibition versus background) (human CD73 on cells [7]): 33

B7: CD73.4-IgG2.5-plusTHT (antibody)
heavy: B5 heavy with C135S, S223C
light: not shown
CD73 Inhibition EC50 (nM), cAMP assay, Calu6 (human CD73 on cells [7]): 0.9 nM
CD73 Inhibition S:B (inhibition versus background) (human CD73 on cells [7]): 44

Next, values leading:

EC50 (nM), inhibition of bead-bound human CD73 enzymatic activity [1]: 3.12 nM
EC50 Calu6 inhibition (human CD73 on cells [2]): 2.21 nM
IC50 (nM), cAMP HTRF assay, Calu-6 with HEK293/A2AR cells (human CD73 on cells [3]): 4.87 nM
Ymax, cAMP HTRF assay (percent of 100 nM 11F11 control) (human CD73 on cells [3]): 84%
Kd [4]: 140 nM
koff [4]: 0.0076 s⁻¹
kon [4]: 55000 M⁻¹ s⁻¹
EC50 (human CD73 on cells [5]): 1.93 nM
B1: 11A6 (antibody, human IgG1, kappa, V domains shown)
VH: EVQLVESGGNLVQPGRSLRLSCAASGFTFDDYAMHWVRQAPGKGLEWVSGISWNNNDIGYADSVKGRFIISRDNAKNSLYLQMNSLRPEDTALYYCVKGYYVILTGLDYWGQGTPVTVSS
VL: B2 VL
notes: IgG1za; also called 11A6-1

EC50 (nM), inhibition of bead-bound human CD73 enzymatic activity [1]: 4.18 nM
EC50 (nM), high-content internalization assay, Calu6, 2 h (human CD73 on cells [6]): 8.2 nM
Ymax, high-content internalization assay (percent of 100 nM 11F11) (human CD73 on cells [6]): 51%
Kd [4]: 14 nM
koff [4]: 0.0032 s⁻¹
kon [4]: 230000 M⁻¹ s⁻¹
B4: 24H2 (antibody, human IgG4, kappa, V domains shown)
VH: B2 VH with L34M, R52W, S56G, Y80F, S84N, G107A, L108F, V110I, T116M
VL: B2 VL
notes: also called 24H2-1

CD73 Inhibition EC50 (nM), cAMP assay, Calu6 (human CD73 on cells [7]): 1.26 nM
B6: CD73.4-IgG2.3-plusGGG (antibody)
heavy: B5 heavy with T227G, H228G, T229G
light: not shown
